Sequences and labels used below:
B1: NIgG4F1A1(RS) (Fc fusion)
chain 1: DVQLQESGGGLVQAGGSLKLSCAASGGSLSRYDMGWFRQAPGKEREFVARISWSGTTKYYADAVKGRFAISRDNAKNTVYLQMNSLKPEDTAVYYCAAAFYGNRGYYDVNAYTSSGQGTQVTVSRSGPPCPPCPAPEFLGGPSVFLFPPKPKDTLMISRTPEVTCVVVDVSQEDPEVQFNWYVDGVEVHNAKTKPREEQFNSTYRVVSVLTVLHQDWLNGKEYKCKVSNKGLPSSIEKTISKAKGQPREPQVYTLPPCQEEMTKNQVSLWCLVKGFYPSDIAVEWESNGQPENNYKTTPPVLDSDGSFFLYSRLTVDKSRWQEGNVFSCSVMHEALHNHYTQKSLSLSLGK
chain 2: EVQLLESGGGLVQPGGSLRLSCAASGFTFGNYDMAWVRQAPGKRPEWVSSIDTGGDITHYADSVKGRFTISRDNAKNTLYLQMNSLRPEDTAVYWCATDEEYALGPNEFDYYGQGTLVTVSSRSGPPCPPCPAPEFLGGPSVFLFPPKPKDTLMISRTPEVTCVVVDVSQEDPEVQFNWYVDGVEVHNAKTKPREEQFNSTYRVVSVLTVLHQDWLNGKEYKCKVSNKGLPSSIEKTISKAKGQPREPQVCTLPPSQEEMTKNQVSLSCAVKGFYPSDIAVEWESNGQPENNYKTTPPVLDSDGSFFLVSRLTVDKSRWQEGNVFSCSVMHEALHNHYTQKSLSLSLGK
B2: NIgG4F1A1(G4S)2 (Fc fusion)
chain 1: DVQLQESGGGLVQAGGSLKLSCAASGGSLSRYDMGWFRQAPGKEREFVARISWSGTTKYYADAVKGRFAISRDNAKNTVYLQMNSLKPEDTAVYYCAAAFYGNRGYYDVNAYTSSGQGTQVTVSGGGGSGGGGSGPPCPPCPAPEFLGGPSVFLFPPKPKDTLMISRTPEVTCVVVDVSQEDPEVQFNWYVDGVEVHNAKTKPREEQFNSTYRVVSVLTVLHQDWLNGKEYKCKVSNKGLPSSIEKTISKAKGQPREPQVYTLPPCQEEMTKNQVSLWCLVKGFYPSDIAVEWESNGQPENNYKTTPPVLDSDGSFFLYSRLTVDKSRWQEGNVFSCSVMHEALHNHYTQKSLSLSLGK
chain 2: EVQLLESGGGLVQPGGSLRLSCAASGFTFGNYDMAWVRQAPGKRPEWVSSIDTGGDITHYADSVKGRFTISRDNAKNTLYLQMNSLRPEDTAVYWCATDEEYALGPNEFDYYGQGTLVTVSSGGGGSGGGGSGPPCPPCPAPEFLGGPSVFLFPPKPKDTLMISRTPEVTCVVVDVSQEDPEVQFNWYVDGVEVHNAKTKPREEQFNSTYRVVSVLTVLHQDWLNGKEYKCKVSNKGLPSSIEKTISKAKGQPREPQVCTLPPSQEEMTKNQVSLSCAVKGFYPSDIAVEWESNGQPENNYKTTPPVLDSDGSFFLVSRLTVDKSRWQEGNVFSCSVMHEALHNHYTQKSLSLSLGK
B3: NIgG4F1A1(G4S)1 (Fc fusion)
chain 1: DVQLQESGGGLVQAGGSLKLSCAASGGSLSRYDMGWFRQAPGKEREFVARISWSGTTKYYADAVKGRFAISRDNAKNTVYLQMNSLKPEDTAVYYCAAAFYGNRGYYDVNAYTSSGQGTQVTVSGGGGSGPPCPPCPAPEFLGGPSVFLFPPKPKDTLMISRTPEVTCVVVDVSQEDPEVQFNWYVDGVEVHNAKTKPREEQFNSTYRVVSVLTVLHQDWLNGKEYKCKVSNKGLPSSIEKTISKAKGQPREPQVYTLPPCQEEMTKNQVSLWCLVKGFYPSDIAVEWESNGQPENNYKTTPPVLDSDGSFFLYSRLTVDKSRWQEGNVFSCSVMHEALHNHYTQKSLSLSLGK
chain 2: EVQLLESGGGLVQPGGSLRLSCAASGFTFGNYDMAWVRQAPGKRPEWVSSIDTGGDITHYADSVKGRFTISRDNAKNTLYLQMNSLRPEDTAVYWCATDEEYALGPNEFDYYGQGTLVTVSSGGGGSGPPCPPCPAPEFLGGPSVFLFPPKPKDTLMISRTPEVTCVVVDVSQEDPEVQFNWYVDGVEVHNAKTKPREEQFNSTYRVVSVLTVLHQDWLNGKEYKCKVSNKGLPSSIEKTISKAKGQPREPQVCTLPPSQEEMTKNQVSLSCAVKGFYPSDIAVEWESNGQPENNYKTTPPVLDSDGSFFLVSRLTVDKSRWQEGNVFSCSVMHEALHNHYTQKSLSLSLGK
B4: CIgG4F1A1(RS) (Fc fusion)
chain 1: GPPCPPCPAPEFLGGPSVFLFPPKPKDTLMISRTPEVTCVVVDVSQEDPEVQFNWYVDGVEVHNAKTKPREEQFNSTYRVVSVLTVLHQDWLNGKEYKCKVSNKGLPSSIEKTISKAKGQPREPQVYTLPPCQEEMTKNQVSLWCLVKGFYPSDIAVEWESNGQPENNYKTTPPVLDSDGSFFLYSRLTVDKSRWQEGNVFSCSVMHEALHNHYTQKSLSLSLGKRSDVQLQESGGGLVQAGGSLKLSCAASGGSLSRYDMGWFRQAPGKEREFVARISWSGTTKYYADAVKGRFAISRDNAKNTVYLQMNSLKPEDTAVYYCAAAFYGNRGYYDVNAYTSSGQGTQVTVS
chain 2: GPPCPPCPAPEFLGGPSVFLFPPKPKDTLMISRTPEVTCVVVDVSQEDPEVQFNWYVDGVEVHNAKTKPREEQFNSTYRVVSVLTVLHQDWLNGKEYKCKVSNKGLPSSIEKTISKAKGQPREPQVCTLPPSQEEMTKNQVSLSCAVKGFYPSDIAVEWESNGQPENNYKTTPPVLDSDGSFFLVSRLTVDKSRWQEGNVFSCSVMHEALHNHYTQKSLSLSLGKRSEVQLLESGGGLVQPGGSLRLSCAASGFTFGNYDMAWVRQAPGKRPEWVSSIDTGGDITHYADSVKGRFTISRDNAKNTLYLQMNSLRPEDTAVYWCATDEEYALGPNEFDYYGQGTLVTVSS
B5: CIgG4E4A1(G4S)3 (Fc fusion)
chain 1: GPPCPPCPAPEFLGGPSVFLFPPKPKDTLMISRTPEVTCVVVDVSQEDPEVQFNWYVDGVEVHNAKTKPREEQFNSTYRVVSVLTVLHQDWLNGKEYKCKVSNKGLPSSIEKTISKAKGQPREPQVYTLPPCQEEMTKNQVSLWCLVKGFYPSDIAVEWESNGQPENNYKTTPPVLDSDGSFFLYSRLTVDKSRWQEGNVFSCSVMHEALHNHYTQKSLSLSLGKGGGGSGGGGSGGGGSDVQLQESGGGLVQPGGSLRLSCAASGFRFSNYAMRWYRQAPGKEREFVARISSTGFITRYTASVRDRFTISRDNDKNMMYLQLNKLTPQDTAHYYCNAESTDYWGQGTQVTVS
chain 2: GPPCPPCPAPEFLGGPSVFLFPPKPKDTLMISRTPEVTCVVVDVSQEDPEVQFNWYVDGVEVHNAKTKPREEQFNSTYRVVSVLTVLHQDWLNGKEYKCKVSNKGLPSSIEKTISKAKGQPREPQVCTLPPSQEEMTKNQVSLSCAVKGFYPSDIAVEWESNGQPENNYKTTPPVLDSDGSFFLVSRLTVDKSRWQEGNVFSCSVMHEALHNHYTQKSLSLSLGKGGGGSGGGGSGGGGSEVQLLESGGGLVQPGGSLRLSCAASGFTFGNYDMAWVRQAPGKRPEWVSSIDTGGDITHYADSVKGRFTISRDNAKNTLYLQMNSLRPEDTAVYWCATDEEYALGPNEFDYYGQGTLVTVSS
B6: NIgG4F1A1(G4S)3 (Fc fusion)
chain 1: DVQLQESGGGLVQAGGSLKLSCAASGGSLSRYDMGWFRQAPGKEREFVARISWSGTTKYYADAVKGRFAISRDNAKNTVYLQMNSLKPEDTAVYYCAAAFYGNRGYYDVNAYTSSGQGTQVTVSGGGGSGGGGSGGGGSGPPCPPCPAPEFLGGPSVFLFPPKPKDTLMISRTPEVTCVVVDVSQEDPEVQFNWYVDGVEVHNAKTKPREEQFNSTYRVVSVLTVLHQDWLNGKEYKCKVSNKGLPSSIEKTISKAKGQPREPQVYTLPPCQEEMTKNQVSLWCLVKGFYPSDIAVEWESNGQPENNYKTTPPVLDSDGSFFLYSRLTVDKSRWQEGNVFSCSVMHEALHNHYTQKSLSLSLGK
chain 2: EVQLLESGGGLVQPGGSLRLSCAASGFTFGNYDMAWVRQAPGKRPEWVSSIDTGGDITHYADSVKGRFTISRDNAKNTLYLQMNSLRPEDTAVYWCATDEEYALGPNEFDYYGQGTLVTVSSGGGGSGGGGSGGGGSGPPCPPCPAPEFLGGPSVFLFPPKPKDTLMISRTPEVTCVVVDVSQEDPEVQFNWYVDGVEVHNAKTKPREEQFNSTYRVVSVLTVLHQDWLNGKEYKCKVSNKGLPSSIEKTISKAKGQPREPQVCTLPPSQEEMTKNQVSLSCAVKGFYPSDIAVEWESNGQPENNYKTTPPVLDSDGSFFLVSRLTVDKSRWQEGNVFSCSVMHEALHNHYTQKSLSLSLGK

This note sets out measurements from patent publication US20250171562A1.

The target in this test is mixture of three Der p 2 specific recombinant human IgE clones H10, H12, P4E (human) (UniProt P01854). As to the kind of experiment: RBL-SX38 IgE displacement, FACS.
Sequence of mixture of three Der p 2 specific recombinant human IgE clones H10, H12, P4E (human) (P01854 other isoform, or with tags, fused parts or gaps): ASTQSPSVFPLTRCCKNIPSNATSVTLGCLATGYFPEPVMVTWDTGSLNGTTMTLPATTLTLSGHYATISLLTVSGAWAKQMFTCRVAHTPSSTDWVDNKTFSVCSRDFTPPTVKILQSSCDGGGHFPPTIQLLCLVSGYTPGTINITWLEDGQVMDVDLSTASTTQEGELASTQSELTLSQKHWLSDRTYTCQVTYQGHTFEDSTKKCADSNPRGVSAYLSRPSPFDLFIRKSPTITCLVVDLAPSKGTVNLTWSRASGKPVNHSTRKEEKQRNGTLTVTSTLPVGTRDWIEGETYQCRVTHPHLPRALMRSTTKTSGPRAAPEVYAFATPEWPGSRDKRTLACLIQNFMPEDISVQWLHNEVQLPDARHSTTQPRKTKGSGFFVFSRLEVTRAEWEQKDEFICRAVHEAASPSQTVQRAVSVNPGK
Take B1: the EC50 (as a rule, the midpoint of the concentration-response curve) worked out at 3.5 nM and the Max effect/effect 1 µM stood at 88%.

Take B2: the EC50 came to 2.1 nM and the Max effect/effect 1 µM came out at 95%.

Consider B3, for which the EC50 stood at 2.6 nM and the Max effect/effect 1 µM is 92%.

On to B4, for which the Max effect/effect 1 µM amounted to 0%.

Regarding B5, the 50% effective concentration (EC50) came to 31.6 nM and the Max effect/effect 1 µM came to 98%.

Turning to B6, the EC50 came to 35.5 nM and the Max effect/effect 1 µM was 92%.
